Measured values taken from patent publication US20180162952A1 (AbbVie / Abbott, published 2018).

T1: hPTK7-His (soluble His-tagged human PTK7 extracellular domain) (human, UniProt Q13308 31-704)
T1 construct: also called PTK7-ECD-His; monomeric recombinant hPTK7-His (isoform a)
T1 sequence: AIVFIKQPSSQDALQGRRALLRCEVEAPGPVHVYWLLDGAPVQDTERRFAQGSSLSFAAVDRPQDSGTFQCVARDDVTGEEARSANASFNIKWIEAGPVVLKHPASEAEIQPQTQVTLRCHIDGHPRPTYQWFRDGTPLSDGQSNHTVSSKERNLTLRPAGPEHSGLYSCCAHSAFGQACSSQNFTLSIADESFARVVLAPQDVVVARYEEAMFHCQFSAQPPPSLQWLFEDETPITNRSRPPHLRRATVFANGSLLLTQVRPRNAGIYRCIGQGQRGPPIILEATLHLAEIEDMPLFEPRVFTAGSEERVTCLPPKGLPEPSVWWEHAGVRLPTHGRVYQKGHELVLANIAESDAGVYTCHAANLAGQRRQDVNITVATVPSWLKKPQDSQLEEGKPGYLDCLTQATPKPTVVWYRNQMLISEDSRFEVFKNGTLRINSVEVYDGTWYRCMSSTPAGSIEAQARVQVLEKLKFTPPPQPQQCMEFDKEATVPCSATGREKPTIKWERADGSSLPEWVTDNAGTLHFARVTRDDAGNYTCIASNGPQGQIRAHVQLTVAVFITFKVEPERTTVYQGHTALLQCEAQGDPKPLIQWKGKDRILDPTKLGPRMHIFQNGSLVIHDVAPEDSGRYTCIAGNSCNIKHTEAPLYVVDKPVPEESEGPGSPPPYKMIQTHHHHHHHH

T2: PTK7 ECD Ig domains 6-7 Fc fusion (human)
T2 chain: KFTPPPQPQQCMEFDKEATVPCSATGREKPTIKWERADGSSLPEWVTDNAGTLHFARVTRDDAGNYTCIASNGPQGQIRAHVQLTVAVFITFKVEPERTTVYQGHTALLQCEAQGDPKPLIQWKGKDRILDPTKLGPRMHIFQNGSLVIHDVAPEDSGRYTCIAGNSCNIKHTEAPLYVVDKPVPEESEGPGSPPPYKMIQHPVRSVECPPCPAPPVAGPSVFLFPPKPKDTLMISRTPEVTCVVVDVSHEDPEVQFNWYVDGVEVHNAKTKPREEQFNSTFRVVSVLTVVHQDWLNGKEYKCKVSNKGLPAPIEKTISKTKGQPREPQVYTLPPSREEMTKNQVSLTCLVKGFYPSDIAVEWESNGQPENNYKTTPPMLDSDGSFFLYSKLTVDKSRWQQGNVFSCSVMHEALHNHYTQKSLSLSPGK

T3: PTK7 ECD Ig domains 1-4 Fc fusion (human)
T3 chain: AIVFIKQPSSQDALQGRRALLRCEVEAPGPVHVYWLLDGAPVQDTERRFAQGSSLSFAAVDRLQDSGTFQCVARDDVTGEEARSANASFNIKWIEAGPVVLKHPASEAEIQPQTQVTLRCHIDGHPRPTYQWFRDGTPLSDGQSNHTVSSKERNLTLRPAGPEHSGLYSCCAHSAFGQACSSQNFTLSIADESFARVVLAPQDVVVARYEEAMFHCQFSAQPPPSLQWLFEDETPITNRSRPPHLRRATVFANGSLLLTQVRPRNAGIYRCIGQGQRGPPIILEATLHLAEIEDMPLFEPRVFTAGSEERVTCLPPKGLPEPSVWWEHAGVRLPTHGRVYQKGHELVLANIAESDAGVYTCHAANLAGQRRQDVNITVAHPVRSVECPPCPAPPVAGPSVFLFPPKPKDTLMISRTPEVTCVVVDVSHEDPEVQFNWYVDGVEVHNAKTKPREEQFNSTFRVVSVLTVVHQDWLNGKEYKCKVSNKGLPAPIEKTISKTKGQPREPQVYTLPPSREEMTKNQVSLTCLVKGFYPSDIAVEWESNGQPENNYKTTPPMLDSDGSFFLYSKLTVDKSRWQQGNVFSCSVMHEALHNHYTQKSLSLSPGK

T4: PTK7 ECD Ig domains 1-5 Fc fusion (human)
T4 chain: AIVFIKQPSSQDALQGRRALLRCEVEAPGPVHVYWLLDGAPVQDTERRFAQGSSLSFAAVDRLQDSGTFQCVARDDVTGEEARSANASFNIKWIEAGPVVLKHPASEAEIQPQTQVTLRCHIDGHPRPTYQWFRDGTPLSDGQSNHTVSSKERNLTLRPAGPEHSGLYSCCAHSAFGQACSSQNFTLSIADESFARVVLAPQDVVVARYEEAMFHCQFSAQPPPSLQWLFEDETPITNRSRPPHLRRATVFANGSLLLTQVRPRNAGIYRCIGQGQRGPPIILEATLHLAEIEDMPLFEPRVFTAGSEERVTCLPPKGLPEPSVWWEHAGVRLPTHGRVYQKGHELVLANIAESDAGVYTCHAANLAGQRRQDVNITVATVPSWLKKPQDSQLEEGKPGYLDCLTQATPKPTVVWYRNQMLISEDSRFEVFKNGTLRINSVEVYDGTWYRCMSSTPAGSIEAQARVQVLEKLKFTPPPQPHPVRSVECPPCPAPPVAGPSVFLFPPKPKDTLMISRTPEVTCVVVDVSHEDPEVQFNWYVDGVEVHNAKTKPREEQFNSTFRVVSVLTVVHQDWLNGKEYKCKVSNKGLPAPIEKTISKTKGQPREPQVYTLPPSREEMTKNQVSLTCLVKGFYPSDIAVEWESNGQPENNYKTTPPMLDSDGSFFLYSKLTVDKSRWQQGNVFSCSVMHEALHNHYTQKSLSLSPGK


Legend:
[1] = target: T1, hPTK7-His (soluble His-tagged human …); experiment: Biacore (superscript B); column Affinity (nM)
Experimental: Second, the affinities and kinetic constants kₒₙ and koff of the selected effectors were then measured using bio-layer interferometry analysis on a ForteBio RED (ForteBio, Inc.) with a standard antigen concentration series. Finally, the affinity of selected modulators was measured by surface plasmon resonance (Biacore System, GE Healthcare).

[2] = target: T2, PTK7 ECD Ig domains 6-7 Fc fusion; experiment: ELISA, Ig-domain Fc fusion captured by anti-human IgG Fc
Experimental: (§1) Using these constructs several modulators were tested for their ability to recognize PTK7 proteins with deletions of defined Ig domains. Through an ELISA assay comprising the use of domain deleted constructs and run under standard conditions. In this regard PTK7 Ig domain Fc fusions were captured on ELISA plate coated with goat anti-human IgG Fc-specific (Jackson Immunoresearch) antibody. The ability of each murine anti-PTK7 antibody to bind the various deletion Fc fusion proteins was then detected with HRP-labeled goat anti-mouse Fc-specific antibody.

[3] = target: T3, PTK7 ECD Ig domains 1-4 Fc fusion; experiment: as above
Experimental: as §1

[4] = target: T4, PTK7 ECD Ig domains 1-5 Fc fusion; experiment: as above
Experimental: as §1

Row | Kd [1] | binding result [2] | binding result [3] | binding result [4] | Binder
1 | < 0.1 nM | no binding | binds | binds | SC6.2.35 (antibody, V domains shown, Murine monoclonal antibody from a hybridoma; also called H2.35; SC6.H2) VH: QVQMQQSGAELMKPGASVKLSCKATGYTFTGYWIEWVKQRPGHGLEWIGEILPGSGRSNSNEKFKGKATFTADTSSNTAYMQLSSLTTEDSAIYYCARGKLSWGQGTLVTVSA VL: DIVLTQSPASLAVSLGQRATISCRASESVDSFGNSFMHWYQQKPGQPPKLLIYAASNLGSGVPARFSGSGSGTDFSLNIHPVEEDDSAMYFCQQSKEVPRTFGGGSRLEIKR
2 | 5.6 nM | no binding | binds | binds | SC6.10.2 (antibody, V domains shown, Murine monoclonal antibody from a hybridoma; also called H10.2; H10) VH: QVQLQQSGAELVRPGVSVKISCKGSGYRFTDYPIHWVKQSHAKSLEWIGIISTYYGDVTNNPKFRGKATMTVDKSSTTAYMELARLTSEDSAIYYCARNDLFAYWGQGTLVTVSA VL: DIVMTQSQKFMSTSVGDRVNVTCKASQNVGTNVVWYQQKTGQSPKALIHSASYRYSGVPDRFTGSGSGTDFTLTLSNVQSEDLAEYFCQHYNSFPYTFGGGTKLEIKR
